Source: patent publication US20130260455A1 (ONCOMED PHARMACEUTICALS, published 2013)

What was measured:
[1] = molecular target: T1, recombinant mouse Notch3 (EGF9-14) (mouse, UniProt Q61982 352-581); test: Biacore SPR
T1 construct: domain: EGF9-14; also called mNotch3; m-Notch3
T1 sequence (looked up): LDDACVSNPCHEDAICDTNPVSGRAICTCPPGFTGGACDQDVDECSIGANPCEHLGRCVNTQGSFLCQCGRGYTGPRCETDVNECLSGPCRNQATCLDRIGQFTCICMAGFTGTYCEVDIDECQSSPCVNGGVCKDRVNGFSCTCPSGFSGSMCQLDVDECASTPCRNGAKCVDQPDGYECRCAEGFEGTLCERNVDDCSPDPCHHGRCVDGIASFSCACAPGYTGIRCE

[2] = molecular target: T2, recombinant mouse Notch2 (EGF10-15) (mouse, UniProt O35516 375-605); test: Biacore SPR
T2 construct: domain: EGF10-15; also called mNotch2; m-Notch2
T2 sequence (looked up): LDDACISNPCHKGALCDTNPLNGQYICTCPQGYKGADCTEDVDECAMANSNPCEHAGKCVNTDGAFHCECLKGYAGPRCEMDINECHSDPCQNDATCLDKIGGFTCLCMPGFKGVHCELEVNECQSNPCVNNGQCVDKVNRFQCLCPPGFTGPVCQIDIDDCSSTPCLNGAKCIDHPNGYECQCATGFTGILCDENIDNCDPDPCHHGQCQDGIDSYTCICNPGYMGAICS

[3] = molecular target: T3, recombinant human Notch3 (EGF9-14) (human, UniProt Q9UM47 351-580); test: Biacore SPR
T3 construct: The whole entry for hNotch3 is named here; also called hNotch3; h-Notch3
T3 sequence: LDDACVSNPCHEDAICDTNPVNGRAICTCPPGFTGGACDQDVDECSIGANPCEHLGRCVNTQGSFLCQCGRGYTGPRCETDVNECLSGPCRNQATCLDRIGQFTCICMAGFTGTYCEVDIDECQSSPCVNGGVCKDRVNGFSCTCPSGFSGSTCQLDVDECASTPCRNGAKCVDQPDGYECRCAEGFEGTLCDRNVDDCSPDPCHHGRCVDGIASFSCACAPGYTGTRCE

[4] = molecular target: T4, human Notch2 as used in the Biacore analysis of Table 6 (construct not stated) (human, UniProt Q04721 375-605, limits assumed); test: Biacore SPR
T4 construct: also called h-Notch2
T4 sequence: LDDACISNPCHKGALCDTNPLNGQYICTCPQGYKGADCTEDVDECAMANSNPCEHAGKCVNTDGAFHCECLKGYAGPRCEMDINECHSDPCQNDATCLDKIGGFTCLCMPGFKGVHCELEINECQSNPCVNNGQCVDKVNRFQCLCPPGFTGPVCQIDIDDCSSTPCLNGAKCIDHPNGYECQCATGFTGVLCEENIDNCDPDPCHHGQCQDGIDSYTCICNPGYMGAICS

[5] = molecular target: T5, recombinant human Notch2 (EGF10-15) (human, UniProt Q04721 375-605); test: Biacore 2000 SPR; Notch protein amine-coupled to CM5 chip, antibody 1-100 nM injected
T5 construct: The whole entry for hNotch2 is named here; also called hNotch2 **N2(EGF 10-155)
T5 sequence: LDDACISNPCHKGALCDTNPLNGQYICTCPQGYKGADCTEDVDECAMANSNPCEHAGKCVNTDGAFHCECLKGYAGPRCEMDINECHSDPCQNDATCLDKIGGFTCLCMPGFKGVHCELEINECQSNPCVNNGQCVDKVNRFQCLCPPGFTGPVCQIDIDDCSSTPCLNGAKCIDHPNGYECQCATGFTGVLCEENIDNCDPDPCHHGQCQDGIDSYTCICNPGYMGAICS
Description: (§1) The affinities for human and mouse Notch1, Notch2, Notch3, and Notch4 were determined using a Biacore 2000 instrument. Briefly, recombinant human and mouse Notch proteins (EGF10-15 for Notch1, 2, & 4; EGF9-14 for Notch3) were immobilized on a CM5 chip using standard amine based chemistry (NHS/EDC). For hNotch2. EGF1-12 was also tested for binding. Different antibody concentrations (1-100 nM) were injected over the protein surfaces and kinetic data were collected over time. The data was fit using the simultaneous global fit equation to yield dissociation constants (KD, nM) for each Notch (Table 3).

[6] = molecular target: T1, recombinant mouse Notch3 (EGF9-14); test: as above
Description: as §1

[7] = molecular target: T2, recombinant mouse Notch2 (EGF10-15); test: as above
Description: as §1

[8] = molecular target: T6, recombinant human Notch2 (EGF1-12) (human, UniProt Q04721 26-493); test: as above
T6 construct: also called hNotch2 *N2(EGF1-12)
T6 sequence: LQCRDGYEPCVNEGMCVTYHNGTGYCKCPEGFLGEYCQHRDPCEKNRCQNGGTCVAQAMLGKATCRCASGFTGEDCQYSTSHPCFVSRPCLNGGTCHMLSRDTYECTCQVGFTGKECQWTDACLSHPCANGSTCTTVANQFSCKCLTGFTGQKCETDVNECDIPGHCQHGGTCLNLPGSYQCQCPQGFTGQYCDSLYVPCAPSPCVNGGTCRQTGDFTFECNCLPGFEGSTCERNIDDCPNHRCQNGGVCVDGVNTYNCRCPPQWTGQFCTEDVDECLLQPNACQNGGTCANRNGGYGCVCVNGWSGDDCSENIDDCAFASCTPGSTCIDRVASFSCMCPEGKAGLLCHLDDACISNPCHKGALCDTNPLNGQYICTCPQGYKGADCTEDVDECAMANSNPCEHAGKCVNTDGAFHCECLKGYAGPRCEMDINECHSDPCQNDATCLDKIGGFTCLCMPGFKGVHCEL
Description: as §1

[9] = molecular target: T3, recombinant human Notch3 (EGF9-14); test: as above
Description: as §1

[10] = molecular target: T7, recombinant human Notch1 (EGF10-15) (human, UniProt P46531 372-601); test: Biacore 2000 SPR; Notch protein amine-coupled to CM5 chip, antibody 1-100 nM injected; Table 3: Biacore 2000, hNotch1 EGF10-15 on CM5 chip, antibody 1-100 nM; fitted KD
T7 construct: The whole entry for hNotch1 is named here; also called hNotch1; h-Notch1
Description: as §1

Kd [1]: 320 pM
Kd [2]: 650 pM
Kd [3]: 190 pM
Kd [4]: 50 pM
Kd [5]: < 100 pM
Kd [6]: 130 pM
Kd [7]: 350 pM
Kd [8]: < 100 pM
Kd [9]: 120 pM
Kd [10]: 86400 pM
B1: 59R1 IgG2 antibody (antibody, V domains shown)
VH: QVQLVESGGGLVQPGGSLRLSCAASGFTFSSSGMSWVRQAPGKGLEWVSVIASSGSNTYYADSVKGRFTISRDNSKNTLYLQMNSLRAEDTAVYYCARGIFFAIWGQGTLVTVSS
VL: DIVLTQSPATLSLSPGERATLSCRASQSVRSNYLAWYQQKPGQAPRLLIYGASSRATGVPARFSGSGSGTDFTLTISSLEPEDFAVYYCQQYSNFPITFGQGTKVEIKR
notes: Human IgG2/kappa made in CHO cells; also called anti-Notch2/3 antibody 59R1
